Laboratory results published in article doi:10.1101/2020.09.08.280818.

Experiments:
[1] = molecular target: human ACE2 peptidase domain (PD), Avi-tagged (human); assay: BLI
[2] = molecular target: SARS-CoV-2 spike glycoprotein stabilised in the prefusion conformation (P2 S), TwinStrep-tagged (SARS-CoV-2) (UniProt P0DTC2); assay: cryo-EM structure

“SARS-CoV-2 spike glycoprotein stabilised in the prefusion conformation (P2 S), TwinStrep-tagged (from UniProt P0DTC2 14-1273) (natural protein)” showed a Kd [1] of 1 nM and a stoichiometry N [2] of 3.
